We go through five molecules from article PMC11539920 (Nature, 2024).

For experiment [1], the target named is T1, BRCA1–BARD1 complex (human, UniProt P38398 1-1863; Q99728 1-777). The experiment in a line: pull-down.
Experiment [2] deals with BRCA1 (subunit of the purified BRCA1–BARD1 complex) (human, UniProt P38398 1-1863). The experiment in a line: mass photometry.
Experiment [3] concerns the target T1, BRCA1–BARD1 complex. The experiment in a line: pull-down. This is another data set of the same source.

Read-outs that look alike come from different tables or passages of the source.

T1 sequence (P38398 whole entry, one chain of several): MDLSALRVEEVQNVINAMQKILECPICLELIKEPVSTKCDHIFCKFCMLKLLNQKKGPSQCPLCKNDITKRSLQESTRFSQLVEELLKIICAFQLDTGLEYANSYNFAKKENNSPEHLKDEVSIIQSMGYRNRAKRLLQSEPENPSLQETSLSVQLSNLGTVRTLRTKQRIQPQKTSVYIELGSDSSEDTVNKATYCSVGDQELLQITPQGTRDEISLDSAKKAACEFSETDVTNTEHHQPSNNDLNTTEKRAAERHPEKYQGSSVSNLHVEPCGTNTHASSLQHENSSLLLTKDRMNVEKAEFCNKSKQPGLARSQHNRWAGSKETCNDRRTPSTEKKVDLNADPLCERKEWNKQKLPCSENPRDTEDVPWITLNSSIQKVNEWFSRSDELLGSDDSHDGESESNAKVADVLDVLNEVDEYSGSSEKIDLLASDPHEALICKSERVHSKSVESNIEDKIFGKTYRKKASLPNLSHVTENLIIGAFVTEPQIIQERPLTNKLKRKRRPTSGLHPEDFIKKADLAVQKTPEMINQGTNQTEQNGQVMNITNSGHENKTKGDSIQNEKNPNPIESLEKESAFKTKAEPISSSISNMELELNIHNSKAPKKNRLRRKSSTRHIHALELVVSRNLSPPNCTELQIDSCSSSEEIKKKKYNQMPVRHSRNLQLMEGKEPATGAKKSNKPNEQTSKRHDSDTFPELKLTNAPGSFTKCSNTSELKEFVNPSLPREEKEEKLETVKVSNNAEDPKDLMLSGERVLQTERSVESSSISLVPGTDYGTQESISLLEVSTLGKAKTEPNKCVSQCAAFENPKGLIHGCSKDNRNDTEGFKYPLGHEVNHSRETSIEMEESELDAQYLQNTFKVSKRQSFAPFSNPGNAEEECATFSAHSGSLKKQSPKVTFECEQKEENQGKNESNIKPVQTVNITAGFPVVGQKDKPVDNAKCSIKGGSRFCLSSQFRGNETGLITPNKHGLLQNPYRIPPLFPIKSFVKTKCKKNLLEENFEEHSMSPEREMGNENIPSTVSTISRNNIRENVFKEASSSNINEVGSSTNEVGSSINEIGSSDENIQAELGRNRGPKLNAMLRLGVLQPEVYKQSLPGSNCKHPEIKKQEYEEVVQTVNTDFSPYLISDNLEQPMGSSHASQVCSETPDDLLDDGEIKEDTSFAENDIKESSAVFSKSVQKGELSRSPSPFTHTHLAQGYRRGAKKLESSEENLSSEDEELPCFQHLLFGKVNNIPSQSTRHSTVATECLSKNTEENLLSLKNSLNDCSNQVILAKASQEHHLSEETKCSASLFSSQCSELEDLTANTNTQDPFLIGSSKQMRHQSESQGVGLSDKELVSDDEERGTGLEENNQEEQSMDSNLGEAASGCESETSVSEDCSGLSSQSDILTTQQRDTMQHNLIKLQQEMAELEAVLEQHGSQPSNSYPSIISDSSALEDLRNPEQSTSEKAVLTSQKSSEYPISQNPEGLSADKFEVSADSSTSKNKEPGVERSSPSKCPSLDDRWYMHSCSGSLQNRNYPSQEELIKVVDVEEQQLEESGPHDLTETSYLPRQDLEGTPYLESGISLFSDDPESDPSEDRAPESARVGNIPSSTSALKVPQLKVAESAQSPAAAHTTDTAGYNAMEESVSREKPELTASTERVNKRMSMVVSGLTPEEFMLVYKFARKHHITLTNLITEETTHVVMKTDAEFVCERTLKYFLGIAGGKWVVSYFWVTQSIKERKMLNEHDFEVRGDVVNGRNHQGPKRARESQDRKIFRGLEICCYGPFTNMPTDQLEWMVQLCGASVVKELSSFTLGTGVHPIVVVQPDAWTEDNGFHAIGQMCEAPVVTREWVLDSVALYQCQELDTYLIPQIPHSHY
BRCA1 (subunit of the purified BRCA1–BARD1 complex), sequence (P38398 whole entry, one chain of several): as above

B1: GST-tagged BLM fragment, residues 636–857 (domain or fragment)
chain: not shown
On to B1, for which the binding result in the experiment with BRCA1–BARD1 complex [1] is “binds”.

B2: BARD1 (subunit of the purified BRCA1–BARD1 complex) (natural protein, human, UniProt Q99728 1-777, looked up)
chain: MPDNRQPRNRQPRIRSGNEPRSAPAMEPDGRGAWAHSRAALDRLEKLLRCSRCTNILREPVCLGGCEHIFCSNCVSDCIGTGCPVCYTPAWIQDLKINRQLDSMIQLCSKLRNLLHDNELSDLKEDKPRKSLFNDAGNKKNSIKMWFSPRSKKVRYVVSKASVQTQPAIKKDASAQQDSYEFVSPSPPADVSERAKKASARSGKKQKKKTLAEINQKWNLEAEKEDGEFDSKEESKQKLVSFCSQPSVISSPQINGEIDLLASGSLTESECFGSLTEVSLPLAEQIESPDTKSRNEVVTPEKVCKNYLTSKKSLPLENNGKRGHHNRLSSPISKRCRTSILSTSGDFVKQTVPSENIPLPECSSPPSCKRKVGGTSGRKNSNMSDEFISLSPGTPPSTLSSSSYRRVMSSPSAMKLLPNMAVKRNHRGETLLHIASIKGDIPSVEYLLQNGSDPNVKDHAGWTPLHEACNHGHLKVVELLLQHKALVNTTGYQNDSPLHDAAKNGHVDIVKLLLSYGASRNAVNIFGLRPVDYTDDESMKSLLLLPEKNESSSASHCSVMNTGQRRDGPLVLIGSGLSSEQQKMLSELAVILKAKKYTEFDSTVTHVVVPGDAVQSTLKCMLGILNGCWILKFEWVKACLRRKVCEQEEKYEIPEGPRRSRLNREQLLPKLFDGCYFYLWGTFKHHPKDNLIKLVTAGGGQILSRKPKPDSDVTQTINTVAYHARPDSDQRFCTQYIIYEDLCNYHPERVRQGKVWKAPSSWFIDCVMSFELLPLDS
Broadly, the stoichiometry N is a count of units in the complex or per binding partner. For B2, the “stoichiometry N” value in experiment [2] was determined as 1.

B3: GST-tagged BLM fragment, residues 2–635 (domain or fragment, human, UniProt P54132 2-635, looked up)
chain: AAVPQNNLQEQLERHSARTLNNKLSLSKPKFSGFTFKKKTSSDNNVSVTNVSVAKTPVLRNKDVNVTEDFSFSEPLPNTTNQQRVKDFFKNAPAGQETQRGGSKSLLPDFLQTPKEVVCTTQNTPTVKKSRDTALKKLEFSSSPDSLSTINDWDDMDDFDTSETSKSFVTPPQSHFVRVSTAQKSKKGKRNFFKAQLYTTNTVKTDLPPPSSESEQIDLTEEQKDDSEWLSSDVICIDDGPIAEVHINEDAQESDSLKTHLEDERDNSEKKKNLEEAELHSTEKVPCIEFDDDDYDTDFVPPSPEEIISASSSSSKCLSTLKDLDTSDRKEDVLSTSKDLLSKPEKMSMQELNPETSTDCDARQISLQQQLIHVMEHICKLIDTIPDDKLKLLDCGNELLQQRNIRRKLLTEVDFNKSDASLLGSLWRYRPDSLDGPMEGDSCPTGNSMKELNFSHLPSNSVSPGDCLLTTTLGKTGFSATRKNLFERPLFNTHLQKSFVSSNWAETPRLGKKNESSYFPGNVLTSTAVKDQNKHTASINDLERETQPSYDIDNFDIDDFDDDDDWEDIMHNLAASKSSTAAYQPIKEGRPIKSVSERLSSAKTDCLPVSSTAQNINFSESIQNYTDKSAQNLA
Take B3: in the experiment with BRCA1–BARD1 complex [1], the binding result is given as “binds”.

B4: GFP-WRN (enzyme)
chain: not shown
For the molecule B4, the binding result with BRCA1–BARD1 complex [3] is given as “binds”.

B5: GST-tagged BLM fragment, residues 636–1298 (domain or fragment)
chain: not shown
For the molecule B5, the binding result with BRCA1–BARD1 complex [1] is listed as “binds”.
